Assay results published in publication PMC4114559, “Pigment Dispersing Factor Regulates Ecdysone Biosynthesis via Bombyx Neuropeptide G Protein Coupled Receptor-B2 in the Prothoracic Glands of Bombyx mori” (PLoS ONE, 2014).

System: 4E-BP
Assay: p-4E-BP level in cultured PGs (Western blot)
Format: cell-based, Bombyx mori
Settings: cultured PGs, 15 min; immunoblotting
Procedure: Dissected PGs were rinsed with Grace's insect culture medium (Gibco) and pre-cultured individually in 100 µl medium in 96-well plates (BD Falcon) at 25°C for 30 min. To evaluate the effect of extracellular Ca^2+ on ecdysone biosynthesis, lepidopteran saline and lepidopteran saline using NaCl as a replacement for CaCl2 were used. For the pharmacological analysis, the PG was pre-treated with the inhibitor for 15 min during the pre-culture period. Following this treatment, the PG was cultured in the desired conditions for the desired period (Ecdysone assay: 3 hours; cAMP assay: 30 min; and Protein phosphorylation assay: 15 min). […]
Dissected PGs were pre-cultured in Grace's culture medium for 30 min, then cultured with or without PDF or PTTH for 15 min. The cultured PGs were sonicated in 50 mM Tris-HCl (pH 6.8) with protease inhibitor cocktail (Complete, Roche) and phosphatase inhibitor cocktail (Wako), lysed in 1x SDS sample buffer excluding 2-mercaptoethanol (2ME) and bromophenol blue (BPB), and the protein concentration was measured using the BCA protein assay kit (Pierce). […]
Figure 4 Signaling pathways involved in PDF-induced ecdysone biosynthesis. […] The transcript levels of nvd, nm-g, spo, phm, dib and sad were quantified with Q-PCR. […] Statistically significant differences were evaluated by Student's t-test (***P<0.001, **P<0.01). […]

B1: PTTH: prothoracicotropic hormone, humoral pathway-mediated tropic hormone (protein, UniProt P17219 116-224, looked up)
Prothoracicotropic hormone: GNIQVENQAIPDPPCTCKYKKEIEDLGENSVPRFIETRNCNKTQQPTCRPPYICKESLYSITILKRRETKSQESLEIPNELKYRWVAESHPVSVACLCTRDYQLRYNNN
modifications: Prothoracicotropic hormone
- level of p-4E-BP: upregulated by both PDF and PTTH
